Drawing on publication doi:10.1101/826115, this text covers stoichiometry N for 2 substances.

In this assay the target is Respiratory complex I (mouse (endogenous in mouse tissues and L929 cells)) (UniProt Q9DC69). In words: Blue-DiS complexome profiling.
UniProt Q9DC69, sequence (Q9DC69 whole entry, looked up, one chain of several): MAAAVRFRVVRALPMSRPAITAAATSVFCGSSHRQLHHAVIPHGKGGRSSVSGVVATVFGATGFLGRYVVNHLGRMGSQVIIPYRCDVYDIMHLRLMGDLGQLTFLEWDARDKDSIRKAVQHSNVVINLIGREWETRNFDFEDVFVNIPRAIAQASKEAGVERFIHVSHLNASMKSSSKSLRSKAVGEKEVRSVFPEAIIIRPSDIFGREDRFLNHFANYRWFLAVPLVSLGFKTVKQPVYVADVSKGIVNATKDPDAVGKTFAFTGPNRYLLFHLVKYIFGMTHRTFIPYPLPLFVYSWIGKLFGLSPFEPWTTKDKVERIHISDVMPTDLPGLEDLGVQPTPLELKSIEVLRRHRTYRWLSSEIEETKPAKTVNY

As for “Respiratory complex III dimer (from UniProt Q9DB77 15-453)”, the stoichiometry N was 2 CIII:CI.
Regarding “Respiratory complex IV (from UniProt P00397 1-514)”, the stoichiometry N is 1 CI:CIV.

Usually stoichiometry N stands for the number of molecules, sites or subunits per partner or assembly.
